Assay results taken from patent US20100135951A1 (UAB RESEARCH FOUNDATION, published 2010).

Assays:
[1] = molecular target: T1, cIAP1 (human, UniProt Q13490 1-618); assay: nickel bead pull-down of His-tagged DDX3 from transfected HEK293A cells, anti-cIAP1 Western blot
Procedure: (§1) The transfected cells were incubated with 500 ng/ml TRA-8 overnight.

[2] = molecular target: T1, cIAP1; assay: TRAIL-R2 co-IP from transfected TRA-8-resistant tumor cells, Western blot with anti-DDX3 and anti-cIAP1
Procedure: as §1
Four type cells were transfected with DDX3ΔCARD. […] Furthermore, the susceptibility of transfected cells to TRA-8-mediated apoptosis was examined using the ATPLITE assay.

T1 sequence (Q13490 whole entry): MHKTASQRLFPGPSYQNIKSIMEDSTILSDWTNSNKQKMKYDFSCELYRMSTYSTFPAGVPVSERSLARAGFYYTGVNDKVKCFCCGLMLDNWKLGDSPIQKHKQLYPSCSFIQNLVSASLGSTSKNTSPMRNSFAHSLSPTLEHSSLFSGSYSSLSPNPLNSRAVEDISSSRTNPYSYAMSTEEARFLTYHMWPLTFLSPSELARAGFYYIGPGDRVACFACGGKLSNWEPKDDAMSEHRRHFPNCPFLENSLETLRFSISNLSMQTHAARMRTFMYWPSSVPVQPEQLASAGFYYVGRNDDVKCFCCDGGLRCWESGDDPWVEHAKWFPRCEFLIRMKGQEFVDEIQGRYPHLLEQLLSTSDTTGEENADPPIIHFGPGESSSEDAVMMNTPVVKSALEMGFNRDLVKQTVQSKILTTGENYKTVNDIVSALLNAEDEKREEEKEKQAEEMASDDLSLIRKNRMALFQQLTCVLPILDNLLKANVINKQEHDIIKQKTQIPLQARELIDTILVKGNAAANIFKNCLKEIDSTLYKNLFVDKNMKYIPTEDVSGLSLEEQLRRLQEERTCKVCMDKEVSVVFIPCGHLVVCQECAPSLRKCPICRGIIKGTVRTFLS

Row | Binder | binding result [1] | binding result [2]
1 | DDX3Δ101-662 (other, Transfected into HEK293A cells and pulled down with nickel beads; also called the DDX3 with the first 100 aa deleted; N-terminal aa 1-aa 100 deleted DDX3; not shown: N-terminal 6-His tag of the pcDNA3.1-His vector) RSDYDGIGSRGDRSGFGKFERGGNSRWCDKSDEDDWSKPLPPSERLEQELFSGGNTGINFEKYDDIPVEATGNNCPPHIESFSDVEMGEIIMGNIELTRYTRPTPVQKHAIPIIKEKRDLMACAQTGSGKTAAFLLPILSQIYSDGPGEALRAMKENGRYGRRKQYPISLVLAPTRELAVQIYEEARKFSYRSRVRPCVVYGGADIGQQIRDLERGCHLLVATPGRLVDMMERGKIGLDFCKYLVLDEADRMLDMGFEPQIRRIVEQDTMPPKGVRHTMMFSATFPKEIQMLARDFLDEYIFLAVGRVGSTSENITQKVVWVEESDKRSFLLDLLNATGKDSLTLVFVETKKGADSLEDFLYHEGYACTSIHGDRSQRDREEALHQFRSGKSPILVATAVAARGLDISNVKHVINFDLPSDIEEYVHRIGRTGRVGNLGLATSFFNERNINITKDLLDLLVEAKQEVPSWLENMAYEHHYKGSSRGRSKSSRFSGGFGARDYRQSSGASSSSFSSSRASSSRSGGGGHGSSRGFGGGGYGGFYNSDGYGGNYNSQGVDWWGN | no binding | –
2 | DDX3ΔCARD (DDX3Δ151-662) (other, also called CARD-truncated DDX3; dominant negative mutant DDX3 lacking aa 1-150) FSGGNTGINFEKYDDIPVEATGNNCPPHIESFSDVEMGEIIMGNIELTRYTRPTPVQKHAIPIIKEKRDLMACAQTGSGKTAAFLLPILSQIYSDGPGEALRAMKENGRYGRRKQYPISLVLAPTRELAVQIYEEARKFSYRSRVRPCVVYGGADIGQQIRDLERGCHLLVATPGRLVDMMERGKIGLDFCKYLVLDEADRMLDMGFEPQIRRIVEQDTMPPKGVRHTMMFSATFPKEIQMLARDFLDEYIFLAVGRVGSTSENITQKVVWVEESDKRSFLLDLLNATGKDSLTLVFVETKKGADSLEDFLYHEGYACTSIHGDRSQRDREEALHQFRSGKSPILVATAVAARGLDISNVKHVINFDLPSDIEEYVHRIGRTGRVGNLGLATSFFNERNINITKDLLDLLVEAKQEVPSWLENMAYEHHYKGSSRGRSKSSRFSGGFGARDYRQSSGASSSSFSSSRASSSRSGGGGHGSSRGFGGGGYGGFYNSDGYGGNYNSQGVDWWGN | – | no binding
